Assay results as given in patent US20070020252A1, “Modified protease inhibitors” (priority 2003, published 2007).
Where no end group is shown, it is not given here.

T1: human neutrophil elastase (HNE) (Homo sapiens, UniProt P08246)
T1 sequence (P08246 30-267): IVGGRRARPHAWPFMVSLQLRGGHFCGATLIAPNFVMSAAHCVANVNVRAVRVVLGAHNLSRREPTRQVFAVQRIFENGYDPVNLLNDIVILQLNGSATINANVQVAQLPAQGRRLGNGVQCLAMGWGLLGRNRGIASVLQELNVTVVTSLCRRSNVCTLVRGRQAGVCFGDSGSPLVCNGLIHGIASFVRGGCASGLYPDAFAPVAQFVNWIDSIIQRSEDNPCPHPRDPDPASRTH

T2: human neutrophil elastase (human, UniProt P08246 30-247)
T2 construct: also called hNE; HNE
T2 sequence (looked up): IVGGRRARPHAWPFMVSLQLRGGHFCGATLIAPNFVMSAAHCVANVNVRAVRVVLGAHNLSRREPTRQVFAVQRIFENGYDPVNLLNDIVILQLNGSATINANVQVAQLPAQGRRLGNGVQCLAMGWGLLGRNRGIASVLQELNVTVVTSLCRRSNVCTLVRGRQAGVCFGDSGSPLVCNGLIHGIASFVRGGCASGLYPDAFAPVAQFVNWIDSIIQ


Tests used:
[1] = Pharmacokinetic study in mice: plasma clearance of 125I-labeled protein, SEC of plasma; format: in vivo; conditions: for α half life: Table 4 summary; for α Phase Clearance (%) / α Phase Half-life / β Phase Clearance (%) / β Phase Half-life (hr) / β Phase Half-life (min): tail vein injection, bi-exponential fit
Description: The pharmacokinetics of DX-890 and the PEGylated DX-890 compounds were measured by iodinating the proteins on available tyrosine residues and measuring their clearance in mice.
Samples were radio-iodinated by the indirect method using the IODO-GEN reagent (method from Pierce Chem. Co., and first described by Chizzonite [J Immunol 147, 1548-1556, 1991; J. Immunol 148, 3117-3124, 1992]). Samples were incubated with the ^125I-NaI solution for 9 min at which time tyrosine (10 mg/mL, a saturated solution) was added to quench the reaction. After about 15 min a 5 μl aliquot was removed as a standard for counting.
For each labeling reaction, the ^125I-labeled material (approx. 0.6 mL) was purified using a single 5 mL D-salt 1800 polyacrylamide column (Pierce Chem. Co.). […] Samples were applied in and columns were eluted with a series of 0.3 mL aliquots. Recovery of applied activity in all protein fractions was >75% and the total recovery of applied activity was >90%. The fractions containing peak levels of labeled protein were pooled for animal injections. To prepare the injectate, the pool was diluted with Tris buffer (pH 7.5) so that the 100 μL injection volume contained about 10 μg of labeled material.
Time of injection and time of sampling were recorded. At sacrifice, samples of 0.5 ml were collected into anticoagulant (0.02 ml EDTA). Cells were spun down and separated from plasma, and cells were stored at −20° C. Plasma was divided into two aliquots, one frozen and one stored at 4° C. for immediate analysis. Analysis included gamma counting of all samples. In addition, analysis was performed for two plasma samples (N=2) at each time point, i.e., 0, and 30 minutes, for ^125I-DX-890, and 0, 30 minutes, and 24 h for the ^125I-DX-890-PEG conjugates. A SEC-HPLC Superose-12 column was used with an in-line radiation detector (FIGS. 4-7).
The solid curves through the sets of data plotted in FIG. 3 are four-parameter, least-squares fits of Equation 3 to the data. Table 3 presents the values for % α Phase, α Phase Half-life, % β Phase, and β Phase Half-life extracted from the least squares fits to the in vivo clearance data set obtained for each of the four compounds tested in mice.

[2] = molecular target: T1, human neutrophil elastase (HNE); experiment: Ki measurement: tight-binding inhibition of HNE, fluorogenic substrate hydrolysis; format: biochemical
Description: (§1) Equilibrium inhibition constants for the PEGylated DX-890 samples were determined according to the tight-binding inhibition model with formation of a reversible complex (1:1 stoichiometry). Reactions were set up with 100 pM enzyme and a range of inhibitor concentrations (0-4 nM) at 30° C. in 50 mM HEPES, pH 7.5, 150 mM NaCl, and 0.1% Triton X-100. Following a 24 h incubation, substrate was added (25 μM) to the enzyme-inhibitor solution and the rate of substrate hydrolysis monitored at an excitation of 360 nm and an emission of 460 nm. Plots of the percent remaining activity versus active inhibitor concentration were fit by nonlinear regression analysis to Equation 1 to determine equilibrium dissociation constants. Both the Dyax DX-890 reference lot 00B16 and the DX-890 used for PEGylations, NBG2016/9 were analyzed for comparison. [formula] Where: • % A=percent activity • I=DX-890 • E=HNE concentration • Ki=equilibrium inhibition constant

[3] = Pharmacokinetic study in rabbits: plasma clearance of 125I-labeled protein, SEC of plasma; format: in vivo, New Zealand White rabbits
Description: Pharmacokinetic properties of DX-890 and PEG-30-DX-890 (conjugation at pH 7.4) were measured by iodinating the proteins and measuring clearance of the radiolabel from circulation in rabbits. The two DX-890 preparations were iodinated with iodine-125 using the iodogen method. After radiolabeling, the two labeled protein preparations were purified from unbound label by size exclusion chromatography (SEC). Fractions from the SEC column having the highest radioactivity were pooled. The purified, radiolabeled preparations were characterized for specific activity by gamma counting and for purity by SEC using a Superose-12 column equipped with an in-line radiation detector.
New Zealand White rabbits (ca. 2.5 Kg) were used for clearance measurements, with one animal used for each of the two labeled protein preparations. The radiolabeled preparation was injected into the animal via an ear vein. One blood sample was collected per animal per time point with early time points at approximately 0, 2.5, 5, 7, 15, 30, 60, and 90 minutes post injection and later time points at 4, 8, 16, 24, 30, 48, 72, 96, 144, 168, and 192 hours post injection. Samples (about 0.5 mL) were collected into anticoagulant (EDTA) containing tubes. Cells were separated from the plasma fraction by centrifugation. The plasma fraction was divided into two aliquots. One plasma aliquot was stored at −70° C. and the other aliquot was kept at 4° C. for immediate analyse's. Sample analyses included radiation counting for clearance rate determinations and SEC chromatography to test for changes in the size distribution of radiolabeled material in vivo (stability).

[4] = molecular target: T2, human neutrophil elastase; experiment: enzyme inhibition, tight-binding model; 100 pM hNE, 0-4 nM inhibitor, 24 h incubation at 30 C, fluorogenic substrate
Description: as §1, with “comparison.” for “comparison. [formula] Where: • % A=percent activity • I=DX-890 • E=HNE concentration • Ki=equilibrium inhibition constant”

[5] = molecular target: T2, human neutrophil elastase; experiment: enzyme inhibition, tight-binding model; 100 pM hNE (summary table, repeats Table 3)
Description: as §1, with “comparison.” for “comparison. [formula] Where: • % A=percent activity • I=DX-890 • E=HNE concentration • Ki=equilibrium inhibition constant”

[6] = molecular target: T2, human neutrophil elastase; experiment: enzyme inhibition, tight-binding model; 100 pM hNE; reference native DX-890
Description: as §1, with “comparison.” for “comparison. [formula] Where: • % A=percent activity • I=DX-890 • E=HNE concentration • Ki=equilibrium inhibition constant”

[7] = ear vein injection, bi-exponential fit

Molecule | α Phase Clearance (%) [1] | α Phase Half-life [1] | β Phase Clearance (%) [1] | β Phase Half-life (hr) [1] | β Phase Half-life (min) [1] | Ki [4] | Ki [5] | also measured
PEG20-DX-890-6.0: DX-890 conjugated to a 20 kDa PEG moiety (MPEG-SPA20K, conjugated at pH 6), mono-PEGylated (EACNLPIVRGPCIAFFPRWAFDAVKGKCVLFPYGGCQGNGNKFYSEKECREYCGVP) | 53% | 0.278 h | 47% | 4.9 h | 296 min |  |  | α half life [1]: 0.25 h
PEG30-DX-890-6.0: DX-890 conjugated to a 30 kDa PEG moiety (MPEG-SPA30K, conjugated at pH 6), mono-PEGylated (EACNLPIVRGPCIAFFPRWAFDAVKGKCVLFPYGGCQGNGNKFYSEKECREYCGVP) | 33% | 0.32 h | 67% | 8.4 h | 505 min |  |  | β phase half life [1]: about 8 hr; α half life [1]: 0.317 h
PEG30-DX-890-7.4: DX-890 conjugated to a 30 kDa PEG moiety (MPEG-SPA30K, conjugated at pH 7.4), mono-PEGylated (EACNLPIVRGPCIAFFPRWAFDAVKGKCVLFPYGGCQGNGNKFYSEKECREYCGVP; not fully specified) |  |  |  |  |  |  |  | Ki relative to native DX-890 [2]: twice; fraction of total material in the slow clearance portion relative to unmodified DX-890 [3]: nearly doubles; in vivo half-life [3]: about 3 days; increase of T1/2β versus unmodified protein [3]: about 25 fold; time label remains stably associated with injectate peaks ([3]; SEC analysis of plasma samples): at least 72 hours; % α [3, 7]: 55%; % β [3, 7]: 45%; T1/2α [3, 7]: 2.73 h; T1/2β [3, 7]: 69.23 h; relative levels of circulating radiolabel versus unmodified protein ([3]; one day post injection): more than 100 fold
PEG20-DX-890-7.4: DX-890 conjugated to a 20 kDa PEG moiety (MPEG-SPA20K, conjugated at pH 7.4), mono-PEGylated (EACNLPIVRGPCIAFFPRWAFDAVKGKCVLFPYGGCQGNGNKFYSEKECREYCGVP) | 58% | 0.417 h | 42% | 5.1 h | 307 min |  |  | 
DX-890 (designed binder, disulfide (positions not given here); also: three intramolecular disulfides, pairing not given here, 56 aa, three intramolecular disulfides; also called EPI-hNE4; Native DX-890) EACNLPIVRGPCIAFFPRWAFDAVKGKCVLFPYGGCQGNGNKFYSEKECREYCGVP |  |  |  |  |  | 7 pM | 7 pM | 
DX-890 conjugated to a 20 kDa PEG moiety (conjugated at pH 7.4) (designed binder, single 20 kDa mPEG (MPEG-SPA20K) attached, mono-PEGylated; reaction at pH 7.4, headed 'Random-Site Modification' (site not determined), also called PEG20-DX-890-7.4; +20K PEG, pH 7.4) EACNLPIVRGPCIAFFPRWAFDAVKGKCVLFPYGGCQGNGNKFYSEKECREYCGVP |  |  |  |  |  | 8 pM | 8 pM | 
DX-890 conjugated to a 30 kDa PEG moiety (conjugated at pH 6) (designed binder, single 30 kDa mPEG (MPEG-SPA30K) attached, mono-PEGylated; reaction at pH 6.0, headed 'N-Terminal-Site Modification', also called PEG30-DX-890-6.0; +30K PEG, pH 6) EACNLPIVRGPCIAFFPRWAFDAVKGKCVLFPYGGCQGNGNKFYSEKECREYCGVP |  |  |  |  |  | 8 pM | 8 pM | 
DX-890 conjugated to a 30 kDa PEG moiety (conjugated at pH 7.4) (designed binder, single 30 kDa mPEG (MPEG-SPA30K) attached, mono-PEGylated; reaction at pH 7.4, headed 'Random-Site Modification' (site not determined), also called PEG30-DX-890-7.4; +30K PEG, pH 7.4) EACNLPIVRGPCIAFFPRWAFDAVKGKCVLFPYGGCQGNGNKFYSEKECREYCGVP |  |  |  |  |  | 16 pM | 16 pM | fold Ki relative to native DX-890 [6]: 2 fold
DX-890 conjugated to a 20 kDa PEG moiety (conjugated at pH 6) (designed binder, single 20 kDa mPEG (MPEG-SPA20K) attached, mono-PEGylated; reaction at pH 6.0, headed 'N-Terminal-Site Modification', also called PEG20-DX-890-6.0; +20K PEG, pH 6) EACNLPIVRGPCIAFFPRWAFDAVKGKCVLFPYGGCQGNGNKFYSEKECREYCGVP |  |  |  |  |  | 7 pM | 7 pM | 
